Legend:
[1] = biological target: T1, PAK4 F461V catalytic domain (human, UniProt O96013 286-591, F461V, phosphoserine at 474 (activation loop, as seen in the structures)); experiment: crystal structure; PAK4 F461V cocrystals with peptide, hanging drop vapor diffusion, 0.1 M Tris-HCl (pH 7.5), 1.5-2.0 M NaOAc at room temperature; conditions: both partners purified
T1 construct: residues built in the models: 300-589; also called F461V mutant PAK4

WT PAK4 catalytic domain [2] = biological target: T2, WT PAK4 catalytic domain (human, UniProt O96013 286-591, phosphoserine at 474 (activation loop, as seen in the structures)); experiment: crystal structure; WT PAK4 crystals grown by hanging drop vapor diffusion against 0.1 M Tris-HCl (pH 7.5), 1.5-2.0 M NaOAc at room temperature and soaked with peptides; conditions: both partners purified
T2 construct: residues built in the models: 300-589 (4JDH, 4JDI) and 291-591 (2Q0N); The construct of PDB 2Q0N may have other limits than that of 4JDH/4JDI

WT PAK4 catalytic domain [3] = biological target: T2, WT PAK4 catalytic domain; experiment: crystal structure; cocrystals of PAK4 with PAKtide-S(L), 1.7 M ammonium sulfate, 15% PEG400, 0.1 M Tris-HCl (pH 8.0); conditions: both partners purified
MST4 V165F (human) = MST4 V165F (human) (UniProt Q9P289)
WT MST4 (human) = WT MST4 (human) (UniProt Q9P289)
WT PAK4 catalytic domain [4] = biological target: T2, WT PAK4 catalytic domain
[5] = biological target: T1, PAK4 F461V catalytic domain

T2 sequence (O96013 286-591): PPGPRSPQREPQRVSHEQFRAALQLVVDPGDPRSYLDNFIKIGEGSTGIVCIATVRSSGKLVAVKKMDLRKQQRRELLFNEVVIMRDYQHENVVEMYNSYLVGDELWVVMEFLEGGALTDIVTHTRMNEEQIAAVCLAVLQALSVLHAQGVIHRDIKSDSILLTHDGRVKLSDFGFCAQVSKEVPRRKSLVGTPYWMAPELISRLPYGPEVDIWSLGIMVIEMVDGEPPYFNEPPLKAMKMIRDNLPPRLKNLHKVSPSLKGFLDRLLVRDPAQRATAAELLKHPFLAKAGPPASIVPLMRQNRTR
Chain of WT MST4 (human) (Q9P289 whole entry, the tested form may be a part): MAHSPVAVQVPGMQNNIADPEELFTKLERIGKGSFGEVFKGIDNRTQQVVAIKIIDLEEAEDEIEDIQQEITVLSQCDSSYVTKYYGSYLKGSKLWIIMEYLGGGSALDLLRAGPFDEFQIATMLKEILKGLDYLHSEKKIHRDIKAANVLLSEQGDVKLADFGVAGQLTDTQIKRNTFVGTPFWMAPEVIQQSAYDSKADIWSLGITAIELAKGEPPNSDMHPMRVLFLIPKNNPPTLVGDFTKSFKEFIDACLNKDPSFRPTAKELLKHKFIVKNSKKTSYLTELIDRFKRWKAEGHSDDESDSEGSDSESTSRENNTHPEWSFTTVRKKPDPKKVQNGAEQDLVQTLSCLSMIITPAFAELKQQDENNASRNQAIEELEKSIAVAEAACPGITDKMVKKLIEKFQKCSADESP
T1 sequence (O96013 286-591 F461V): as the sequence (O96013 286-591) above, with F176V counted along it
Chain of MST4 V165F (human) (Q9P289 whole entry V165F): as the sequence (Q9P289 whole entry, the tested form may be a part) above, with V165F counted along it

B1: PAKtide-S (peptide)
peptide: RRRRSWY
notes: consensus peptide substrate of PAK4, phosphoacceptor Ser (P0); also called PAK4 consensus peptide substrate with Ser phosphoacceptor (short form used for crystals); source: synthetic peptide
B1: binds [1]; binds (WT PAK4 catalytic domain [2]).

B2: PAKtide-S(L) (peptide)
peptide: RRRRRSWYFDG
notes: longer consensus peptide substrate of PAK4, phosphoacceptor Ser (P0); also called longer version of the consensus peptide; source: synthetic peptide
B2: binds (WT PAK4 catalytic domain [3]).

In the case of NKGYNSLRRKK [MST4 substrate peptide … (X = Ser)], the Km for phosphorylation of the peptide (radiolabel filter binding kinase assay) (MST4 V165F (human)) is reported as 360 µM and the Km for phosphorylation of the peptide (radiolabel filter binding kinase assay) (WT MST4 (human)) is reported as 21.7 µM.

NKGYNTLRRKK [MST4 substrate peptide … (X = Thr)] showed a Km for phosphorylation of the peptide (radiolabel filter binding kinase assay) (MST4 V165F (human)) of 390 µM and a Km for phosphorylation of the peptide (radiolabel filter binding kinase assay) (WT MST4 (human)) of 14 µM.

For GGRRRRRSWYFGGGK [PAK4 substrate peptide … (X = Ser)], the Km for phosphorylation of the peptide (radiolabel filter binding kinase assay) (WT PAK4 catalytic domain [4]) was 280 µM and the Km for phosphorylation of the peptide (radiolabel filter binding kinase assay) [5] was 129 µM.
